For one molecule, Kd results are on record in article PMC11696079 (Nature Communications, 2025).

“And” between values parts separate entries of the source, which are not always exact repeats. Identical values can stand only once.

This experiment deals with recombinant wild-type PKM2 (WT) (UniProt P14618 1-531). The experiment in a line: SPR. Background: In SPR one partner is held on a chip, and binding of the other changes the refractive index at the surface.
recombinant wild-type PKM2 (WT), sequence (P14618 whole entry): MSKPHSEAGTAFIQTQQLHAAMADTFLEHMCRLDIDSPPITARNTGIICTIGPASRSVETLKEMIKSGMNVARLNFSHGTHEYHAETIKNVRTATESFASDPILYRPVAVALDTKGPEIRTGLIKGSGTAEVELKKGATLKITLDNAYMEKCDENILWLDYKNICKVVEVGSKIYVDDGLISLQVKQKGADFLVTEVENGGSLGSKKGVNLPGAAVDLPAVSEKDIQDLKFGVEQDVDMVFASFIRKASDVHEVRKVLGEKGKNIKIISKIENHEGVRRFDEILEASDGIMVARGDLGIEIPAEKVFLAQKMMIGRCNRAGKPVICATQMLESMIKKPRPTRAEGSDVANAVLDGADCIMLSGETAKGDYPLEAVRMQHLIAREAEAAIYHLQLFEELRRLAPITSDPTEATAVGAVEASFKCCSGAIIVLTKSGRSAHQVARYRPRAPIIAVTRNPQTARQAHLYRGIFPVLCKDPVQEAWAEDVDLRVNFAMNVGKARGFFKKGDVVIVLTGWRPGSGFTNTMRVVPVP

B1: recombinant wild-type ALDOA (WT) (enzyme)
chain: PYQYPALTPEQKKELSDIAHRIVAPGKGILAADESTGSIAKRLQSIGTENTEENRRFYRQLLLTADDRVNPCIGGVILFHETLYQKADDGRPFPQVIKSKGGVVGIKVDKGVVPLAGTNGETTTQGLDGLSERCAQYKKDGADFAKWRCVLKIGEHTPSALAIMENANVLARYASICQQNGIVPIVEPEILPDGDHDLKRCQYVTEKVLAAVYKALSDHHIYLEGTLLKPNMVTPGHACTQKFSHEEIAMATVTALRRTVPPAVTGITFLSGGQSEEEASINLNAINKCPLLKPWALTFSYGRALQASALKAWGGKKENLKAAQEEYVKRALANSLACQGKYTPSGQAGAAASESLFVSNHAY
B1: the equilibrium dissociation constant (Kd) was 382 nM and 322 nM.

One may read the Kd as the free concentration of one partner at which half of the binding sites on the other are occupied at equilibrium, for simple one-to-one binding.
